Assay results taken from US20230052369A1 (Zymeworks, published 2023).

Tests used:
[1] = biological target: T1, purified human monomeric 4-1BB (human, UniProt Q07011 24-186); test: SPR, Ab captured, monomeric 4-1BB injected
T1 construct: the assay used the 4-1BB part released by Factor Xa with the Fc removed; also called h4-1BB; human 4-1BB
Experimental: The anti-human Fc surface was prepared on a CMS Series S sensorchip by standard amine coupling methods as described by the manufacturer (GE Healthcare). Briefly, immediately after EDC/NHS activation, a 25 μg/mL solution of anti-human Fc in 10 mM NaOAc pH 4.5 was injected at a flow rate of 10 μL/min for 420 s until approximately 2000 resonance units (RUs) were immobilized on all four flow cells. The remaining active groups were quenched by a 420 s injection of 1M ethanolamine at 10 μL/min.
Antibodies for analysis were captured onto the anti-Fc surface by injecting 5 μg/mL solutions at a flow rate of 10 μL/min for 60 s. Using single-cycle kinetics, five concentrations of a two-fold dilution series of 4-1BB starting at 40 nM (for both supernatant and purified antibody runs) with a blank buffer control were sequentially injected at 40 μL/min for 180 s with a 600 s dissociation phase, resulting in a set of sensorgrams with a buffer blank reference. Experiments were performed at a constant temperature of 25° C. The anti-human Fc surfaces were regenerated to prepare for the next injection cycle by one pulse of 10 mM Glycine/HCl pH 1.5 for 120 s at 40 μL/min. Blank-subtracted sensorgrams were analyzed using Biacore™ T200 Evaluation Software v3.0. The blank-subtracted sensorgrams were then fit to the 1:1 Langmuir binding model.
Variants purified by SEC were assessed for binding to human 4-1BB.

[2] = biological target: T2, full-length human FRα, on 293E cells (human, UniProt P15328 25-234); test: flow cytometry, 293E cells expressing FRα
T2 construct: also called folate receptor alpha; FOLR1
T2 sequence (P15328 25-234 limits assumed): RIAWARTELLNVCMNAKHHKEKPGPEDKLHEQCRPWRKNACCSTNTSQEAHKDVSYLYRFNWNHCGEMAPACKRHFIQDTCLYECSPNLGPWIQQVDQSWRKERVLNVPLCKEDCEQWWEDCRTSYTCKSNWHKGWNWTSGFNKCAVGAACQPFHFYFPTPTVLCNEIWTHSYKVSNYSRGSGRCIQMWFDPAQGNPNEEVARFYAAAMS
Experimental: Antibodies were diluted in 50 μl FB (PBS 2% FCS) 1:3 from stock in wells of a 96 V-well plate, and cells added on top. The cells were then left on ice for 30 minutes for the antibodies to bind. The cells were then washed twice in FB, and incubated in 50 μl FB containing 2 μg/ml goat anti-human Alexa647 antibody (Jackson Immunoresearch). The cells were then left on ice for a further 20 minutes, washed twice in FB, resuspended in 100 μl FB and analyzed on a BD Fortessa™ X20. The subsequent data files were analyzed using FlowJo™ and Prism 7 (GraphPad).

T1 sequence (Q07011 other isoform, or with tags, fused parts or gaps limits assumed): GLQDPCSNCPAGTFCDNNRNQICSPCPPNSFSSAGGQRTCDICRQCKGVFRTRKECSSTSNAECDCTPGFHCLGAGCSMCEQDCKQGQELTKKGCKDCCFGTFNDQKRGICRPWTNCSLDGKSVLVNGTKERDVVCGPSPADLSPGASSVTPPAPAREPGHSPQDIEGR

B1: v23660 (bispecific antibody, human IgG1, kappa, L234A L235A)
heavy 1: QVQLKESGPGLVAPSQSLSITCTVSGFSLTSYAISWVRQPPGKGLEWLGVIWPGGGTNYNSALKSRLSISKDNSKSQVFLKMNSLQTDDTARYYCARGTGTWYFDVWGAGTTVTVSSASTKGPSVFPLAPSSKSTSGGTAALGCLVKDYFPEPVTVSWNSGALTSGVHTFPAVLQSSGLYSLSSVVTVPSSSLGTQTYICNVNHKPSNTKVDKKVEPKSCDKTHTCPPCPAPEAAGGPSVFLFPPKPKDTLMISRTPEVTCVVVSVSHEDPEVKFNWYVDGVEVHNAKTKPREEQYNSTYRVVSVLTVLHQDWLNGKEYKCKVSNKALPAPIEKTISKAKGQPREPQVYVYPPSRDELTKNQVSLTCLVKGFYPSDIAVEWESNGQPENNYKTTPPVLDSDGSFALVSKLTVDKSRWQQGNVFSCSVMHEALHNHYTQKSLSLSPGGGGGDIVMTQTPASVEAAVGGTVTIKCQASQSIYSSLAWYQQKPGQSPKLLIYDASHLASGVPSRFSGSRYGTEFTLTISGVQCDDAATYYCQGGWYSSAATYVPNTFGGGTEVVVKGGGGSGGGGSGGGGSQEQLVESGGGLVQPEGSLTLTCKASGFTISNNYYMCWVRQAPGKGLEWIACIYGGISGRTYYASWAKGRFTISKTSSTTVTLQMTSLTAADTATYFCVRGYVGTSNLWGPGTLVTVSS
heavy 2: QVQLKESGPGLVAPSQSLSITCTVSGFSLTSYAISWVRQPPGKGLEWLGVIWPGGGTNYNSALKSRLSISKDNSKSQVFLKMNSLQTDDTARYYCARGTGTWYFDVWGAGTTVTVSSASTKGPSVFPLAPSSKSTSGGTAALGCLVKDYFPEPVTVSWNSGALTSGVHTFPAVLQSSGLYSLSSVVTVPSSSLGTQTYICNVNHKPSNTKVDKKVEPKSCDKTHTCPPCPAPEAAGGPSVFLFPPKPKDTLMISRTPEVTCVVVSVSHEDPEVKFNWYVDGVEVHNAKTKPREEQYNSTYRVVSVLTVLHQDWLNGKEYKCKVSNKALPAPIEKTISKAKGQPREPQVYVLPPSRDELTKNQVSLLCLVKGFYPSDIAVEWESNGQPENNYLTWPPVLDSDGSFFLYSKLTVDKSRWQQGNVFSCSVMHEALHNHYTQKSLSLSPG
light: DIQMTQTTSSLSASLGDRVTISCSASQGISNYLNWYQQKPDGTVKLLIYYTSSLHSGVPSRFSGSGSGTDYSLTISNLEPEDIATYYCQQYSDLPWTFGGGTKLEIKRTVAAPSVFIFPPSDEQLKSGTASVVCLLNNFYPREAKVQWKVDNALQSGNSQESVTEQDSKDSTYSLSSTLTLSKADYEKHKVYACEVTHQGLSSPVTKSFNRGEC
notes: also called 6B3 x 8K22 (VLVH) 2x1
- Kd [1]: 364 nM
- binding result [2]: binds

B2: v23651 (bispecific antibody, human IgG1, kappa, L234A L235A)
heavy 1: QVQLKESGPGLVAPSQSLSITCTVSGFSLTTYAISWVRQPPGKGLEWLGIIWPGGGTNYNSALKSRLSISKDNSRSQVFLKMNSLQTDDTARYYCARGAGTWYFDVWGAGTTVTVSSASTKGPSVFPLAPSSKSTSGGTAALGCLVKDYFPEPVTVSWNSGALTSGVHTFPAVLQSSGLYSLSSVVTVPSSSLGTQTYICNVNHKPSNTKVDKKVEPKSCDKTHTCPPCPAPEAAGGPSVFLFPPKPKDTLMISRTPEVTCVVVSVSHEDPEVKFNWYVDGVEVHNAKTKPREEQYNSTYRVVSVLTVLHQDWLNGKEYKCKVSNKALPAPIEKTISKAKGQPREPQVYVYPPSRDELTKNQVSLTCLVKGFYPSDIAVEWESNGQPENNYKTTPPVLDSDGSFALVSKLTVDKSRWQQGNVFSCSVMHEALHNHYTQKSLSLSPGGGGGQVQLVQSGAEVVKPGASVKISCKASGYTFTGYFMNWVKQSPGQSLEWIGRIHPYDGDTFYNQKFQGKATLTVDKSSNTAHMELLSLTSEDFAVYYCTRYDGSRAMDYWGQGTTVTVSSGGGGSGGGGSGGGGSDIVLTQSPLSLAVSLGQPAIISCKASQSVSFAGTSLMHWYHQKPGQQPRLLIYRASNLEAGVPDRFSGSGSKTDFTLTISPVEAEDAATYYCQQSREYPYTFGGGTKLEIK
heavy 2: QVQLKESGPGLVAPSQSLSITCTVSGFSLTTYAISWVRQPPGKGLEWLGIIWPGGGTNYNSALKSRLSISKDNSRSQVFLKMNSLQTDDTARYYCARGAGTWYFDVWGAGTTVTVSSASTKGPSVFPLAPSSKSTSGGTAALGCLVKDYFPEPVTVSWNSGALTSGVHTFPAVLQSSGLYSLSSVVTVPSSSLGTQTYICNVNHKPSNTKVDKKVEPKSCDKTHTCPPCPAPEAAGGPSVFLFPPKPKDTLMISRTPEVTCVVVSVSHEDPEVKFNWYVDGVEVHNAKTKPREEQYNSTYRVVSVLTVLHQDWLNGKEYKCKVSNKALPAPIEKTISKAKGQPREPQVYVLPPSRDELTKNQVSLLCLVKGFYPSDIAVEWESNGQPENNYLTWPPVLDSDGSFFLYSKLTVDKSRWQQGNVFSCSVMHEALHNHYTQKSLSLSPG
light: DIQMTQSTSSLSASVGDRVTISCSASQGISNYLNWYQQKPDGTVKLLIYYTSSLHSGVPSRFSGSGSGTDYSLTISNLEPEDIATYYCQQYSKFPWTFGGGTKLEIKRTVAAPSVFIFPPSDEQLKSGTASVVCLLNNFYPREAKVQWKVDNALQSGNSQESVTEQDSKDSTYSLSSTLTLSKADYEKHKVYACEVTHQGLSSPVTKSFNRGEC
notes: also called 1C8 x Mirvetuximab (scFv) 2x1
- binding result [2]: binds

B3: v23656 (bispecific antibody, human IgG1, kappa, L234A L235A)
heavy 1: QVQLKESGPGLVAPSQSLSITCTVSGFSLTTYAISWVRQPPGKGLEWLGIIWPGGGTNYNSALKSRLSISKDNSRSQVFLKMNSLQTDDTARYYCARGAGTWYFDVWGAGTTVTVSSASTKGPSVFPLAPSSKSTSGGTAALGCLVKDYFPEPVTVSWNSGALTSGVHTFPAVLQSSGLYSLSSVVTVPSSSLGTQTYICNVNHKPSNTKVDKKVEPKSCDKTHTCPPCPAPEAAGGPSVFLFPPKPKDTLMISRTPEVTCVVVSVSHEDPEVKFNWYVDGVEVHNAKTKPREEQYNSTYRVVSVLTVLHQDWLNGKEYKCKVSNKALPAPIEKTISKAKGQPREPQVYVYPPSRDELTKNQVSLTCLVKGFYPSDIAVEWESNGQPENNYKTTPPVLDSDGSFALVSKLTVDKSRWQQGNVFSCSVMHEALHNHYTQKSLSLSPGGGGGDIVMTQTPASVEAAVGGTVTIKCQASQSIYSSLAWYQQKPGQSPKLLIYDASHLASGVPSRFSGSRYGTEFTLTISGVQCDDAATYYCQGGWYSSAATYVPNTFGGGTEVVVKGGGGSGGGGSGGGGSQEQLVESGGGLVQPEGSLTLTCKASGFTISNNYYMCWVRQAPGKGLEWIACIYGGISGRTYYASWAKGRFTISKTSSTTVTLQMTSLTAADTATYFCVRGYVGTSNLWGPGTLVTVSS
heavy 2: QVQLKESGPGLVAPSQSLSITCTVSGFSLTTYAISWVRQPPGKGLEWLGIIWPGGGTNYNSALKSRLSISKDNSRSQVFLKMNSLQTDDTARYYCARGAGTWYFDVWGAGTTVTVSSASTKGPSVFPLAPSSKSTSGGTAALGCLVKDYFPEPVTVSWNSGALTSGVHTFPAVLQSSGLYSLSSVVTVPSSSLGTQTYICNVNHKPSNTKVDKKVEPKSCDKTHTCPPCPAPEAAGGPSVFLFPPKPKDTLMISRTPEVTCVVVSVSHEDPEVKFNWYVDGVEVHNAKTKPREEQYNSTYRVVSVLTVLHQDWLNGKEYKCKVSNKALPAPIEKTISKAKGQPREPQVYVLPPSRDELTKNQVSLLCLVKGFYPSDIAVEWESNGQPENNYLTWPPVLDSDGSFFLYSKLTVDKSRWQQGNVFSCSVMHEALHNHYTQKSLSLSPG
light: DIQMTQSTSSLSASVGDRVTISCSASQGISNYLNWYQQKPDGTVKLLIYYTSSLHSGVPSRFSGSGSGTDYSLTISNLEPEDIATYYCQQYSKFPWTFGGGTKLEIKRTVAAPSVFIFPPSDEQLKSGTASVVCLLNNFYPREAKVQWKVDNALQSGNSQESVTEQDSKDSTYSLSSTLTLSKADYEKHKVYACEVTHQGLSSPVTKSFNRGEC
notes: Two 4-1BB Fabs, one FRα scFv at the C-terminus of one heavy chain; also called 1C8 x 8K22 (VLVH) 2x1
- Kd [1]: 480 nM
- binding result [2]: binds

B4: v23662 (bispecific antibody, human IgG1, kappa, L234A L235A)
heavy 1: QVQLKQSGPGLVQPSQSLSITCTVSGFSLTSYGVHWVRQSPGKGLEWLGVIWSGGSTDYNAAFISRLSISKDNSKSQVFFKMNSLQADDTAIYYCARNPLTATVMDYWGQGTSVTVSSASTKGPSVFPLAPSSKSTSGGTAALGCLVKDYFPEPVTVSWNSGALTSGVHTFPAVLQSSGLYSLSSVVTVPSSSLGTQTYICNVNHKPSNTKVDKKVEPKSCDKTHTCPPCPAPEAAGGPSVFLFPPKPKDTLMISRTPEVTCVVVSVSHEDPEVKFNWYVDGVEVHNAKTKPREEQYNSTYRVVSVLTVLHQDWLNGKEYKCKVSNKALPAPIEKTISKAKGQPREPQVYVYPPSRDELTKNQVSLTCLVKGFYPSDIAVEWESNGQPENNYKTTPPVLDSDGSFALVSKLTVDKSRWQQGNVFSCSVMHEALHNHYTQKSLSLSPGGGGGDIVMTQTPSSVSAAVGGTVTIKCQASQTIGSSLAWYQQKPGQPPKLLIYRASTLASGVSSRFRGSGSGTEYTLTISDLECADAATYYCQWTDYGYIYIWAFGGGTEVVVKGGGGSGGGGSGGGGSQEQLVESGGGLVQPEGSLTLTCTASKFSFSSLYYMCWVRQAPGKGLEWIACVYGGSSGNTYYASWAKGRFTISKASSTTVTLQLTSLTAADTATYFCARFDVDGSGFNLWGPGTLVTVSS
heavy 2: QVQLKQSGPGLVQPSQSLSITCTVSGFSLTSYGVHWVRQSPGKGLEWLGVIWSGGSTDYNAAFISRLSISKDNSKSQVFFKMNSLQADDTAIYYCARNPLTATVMDYWGQGTSVTVSSASTKGPSVFPLAPSSKSTSGGTAALGCLVKDYFPEPVTVSWNSGALTSGVHTFPAVLQSSGLYSLSSVVTVPSSSLGTQTYICNVNHKPSNTKVDKKVEPKSCDKTHTCPPCPAPEAAGGPSVFLFPPKPKDTLMISRTPEVTCVVVSVSHEDPEVKFNWYVDGVEVHNAKTKPREEQYNSTYRVVSVLTVLHQDWLNGKEYKCKVSNKALPAPIEKTISKAKGQPREPQVYVLPPSRDELTKNQVSLLCLVKGFYPSDIAVEWESNGQPENNYLTWPPVLDSDGSFFLYSKLTVDKSRWQQGNVFSCSVMHEALHNHYTQKSLSLSPG
light: DIVMTQSQKFMSTSVGDRVSVTCKASQNVGTNVAWYQQKPGQSRTVLIYSASYRHSGVPDRFTGSGSGTDFTLTISNVQSEDLAEYFCQQYNSYPLTFGTGTKLELKRTVAAPSVFIFPPSDEQLKSGTASVVCLLNNFYPREAKVQWKVDNALQSGNSQESVTEQDSKDSTYSLSSTLTLSKADYEKHKVYACEVTHQGLSSPVTKSFNRGEC
notes: also called 2E8 x 1H06 (VLVH) 2x1
- Kd [1]: 155 nM
